US20240043521A1 (ARXX THERAPEUTICS, published 2024)

T1: human FcγRIIa-H (the high-affinity H131 variant) on Jurkat reporter cells (human, UniProt P12318 34-317)
T1 sequence (looked up): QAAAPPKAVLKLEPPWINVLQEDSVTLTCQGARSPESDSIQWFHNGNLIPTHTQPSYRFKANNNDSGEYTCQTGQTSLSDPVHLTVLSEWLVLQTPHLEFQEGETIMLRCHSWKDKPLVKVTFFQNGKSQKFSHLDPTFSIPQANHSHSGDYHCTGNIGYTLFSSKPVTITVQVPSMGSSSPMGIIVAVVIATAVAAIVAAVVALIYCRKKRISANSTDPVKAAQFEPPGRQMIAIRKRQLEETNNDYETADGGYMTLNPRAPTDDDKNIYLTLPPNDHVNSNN

T2: A8 (lane under "Human S100 Proteins")
T2 construct: also called human S100A8
T2 chain: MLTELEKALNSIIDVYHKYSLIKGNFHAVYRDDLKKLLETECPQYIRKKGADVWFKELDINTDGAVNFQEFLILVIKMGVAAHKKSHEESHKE


Experiments:
[1] = target: T1, human FcγRIIa-H (the high-affinity H131 …); assay: cell-based or functional assay
human S100A4 dimer = target: T3, human S100A4 dimer (Homo sapiens, UniProt P26447 1-101); assay: SPR, Biacore T200, 25 C; S100A4 captured via anti-His, antibody as analyte (0.78-200 nM), 1:1 fit
T3 construct: In the SPR it was captured on an anti-His surface, so it carried a His tag; also called recombinant human S100A4 dimer
T3 sequence (P26447 whole entry, one chain of several): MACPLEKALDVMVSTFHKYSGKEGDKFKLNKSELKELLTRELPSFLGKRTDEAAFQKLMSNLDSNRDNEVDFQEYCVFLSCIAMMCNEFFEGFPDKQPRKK
Description: Quantitative, kinetic analysis of the interactions between 14 humanized antibodies and 2 control antibodies with the human S100A4 dimer were performed using surface plasmon resonance (SPR).
The analysis was performed using a Biacore T200 instrument, at 25° C. analysis temperature, at a flow rate of 50 μl/min for quantitative kinetic interaction analyses.

[2] = target: T2, A8 (lane under "Human S100 Proteins"); assay: Western blot on human S100 proteins
[3] = target: A6 (lane under "Human S100 Proteins") (Homo sapiens, UniProt P06703); assay: Western blot on human S100 proteins

Row | Binder | FcγRIIa-H ADCP reporter; fold higher activation than AX-202 hIgG4, immune complex with S100A4 dimer [1] | FcγRIIa-H ADCP reporter; fold higher activation than AX-202 hIgG4, immune complex with S100A4 multimer [1] | Kd (human S100A4 dimer) | koff (human S100A4 dimer) | kon (human S100A4 dimer) | FcγRIIa-H ADCP reporter; potency to induce FcγR activation against the same antibody with a human IgG1 scaffold [1] | binding result [2] | binding result [3]
1 | 6B12, mouse monoclonal IgG1 anti-S100A4 antibody (antibody, V domains shown, Mouse IgG1; also called 6B12 mIgG1; 6B12 IgG1) VH: DVQLQESGPGLVKPSQSLSLTCSVTGDSFTNDYYWNWIRQFPGSKLEWMGHIGYGGNINYNPSLKNRISITRDTSKNQFFLRLTSVTTEDTATYYCTRESFYDGYPFDYWGQGTLVTVSA VL: DIQMTQTTSSLSASLGDRVTISCRASQDIRNYLNWYQQRPGGTLKLLIYYTSRLHSGVPSRFSGSGSGTDYSLTISNLEQEDIATYFCQQGNSLPRTFGGGTKLEIK | 3.23 fold | 2.87 fold | 1.65 nM | 0.000206 s⁻¹ | 124000 M⁻¹ s⁻¹ |  |  | 
2 | VH0 VL3 (antibody, V domains shown) VH: DVQLQESGPGLVKPSQSLSLTCSVTGDSFTNDYYWNWIRQFPGSKLEWMGHIGYGGNINYNPSLKNRISITRDTSKNQFFLRLTSVTTEDTATYYCTRESFYDGYPFDYWGQGTLVTVSA VL: DIQMTQSPSSLSASVGDRVTITCRASQDIRNYLNWYQQKPGKAPKLLLYYTSRLHSGVPSRFSGSGSGTDYTLTISSLQPEDFATYYCQQGNSLPRTFGGGTKVEIK |  |  | 1.46 nM | 0.000279 s⁻¹ | 191000 M⁻¹ s⁻¹ |  |  | 
3 | VH1 VL0 (antibody, V domains shown) VH: QVQLQESGPGLVKPSQTLSLTCTVSGDSFTNDYYWNWIRQHPGKGLEWIGHIGYGGNINYNPSLKNRLSMSRDTSKNQFSLKLSSVTAADTAVYYCTRESFYDGYPFDYWGQGTLVTVSS VL: DIQMTQTTSSLSASLGDRVTISCRASQDIRNYLNWYQQRPGGTLKLLIYYTSRLHSGVPSRFSGSGSGTDYSLTISNLEQEDIATYFCQQGNSLPRTFGGGTKLEIK |  |  | 1.15 nM | 0.000361 s⁻¹ | 313000 M⁻¹ s⁻¹ |  |  | 
4 | VH0 VL0: the VH and VL regions of 6B12 comprised in a humanized IgG4 isotype framework (antibody, V domains shown) VH: DVQLQESGPGLVKPSQSLSLTCSVTGDSFTNDYYWNWIRQFPGSKLEWMGHIGYGGNINYNPSLKNRISITRDTSKNQFFLRLTSVTTEDTATYYCTRESFYDGYPFDYWGQGTLVTVSA VL: DIQMTQTTSSLSASLGDRVTISCRASQDIRNYLNWYQQRPGGTLKLLIYYTSRLHSGVPSRFSGSGSGTDYSLTISNLEQEDIATYFCQQGNSLPRTFGGGTKLEIK |  |  | 0.958 nM | 0.000219 s⁻¹ | 229000 M⁻¹ s⁻¹ |  |  | 
5 | AX-202, a humanized IgG4 monoclonal anti-S100A4 antibody (antibody) heavy: not shown light: DIQMTQSPSSLSASVGDRVTITCRASQDIRNYLNWYQQKPGKALKLLLYYTSRLHSGVPSRFSGSGSGTDYTLTISSLQPEDFATYYCQQGNSLPRTFGGGTKVEIKRTVAAPSVFIFPPSDEQLKSGTASVVCLLNNFYPREAKVQWKVDNALQSGNSQESVTEQDSKDSTYSLSSTLTLSKADYEKHKVYACEVTHQGLSSPVTKSFNRGEC |  |  |  |  |  | ~3 fold lower |  | 
6 | VH1 VL3_L44Leu (antibody, V domains shown, Humanized antibody; also called VH1:VL3_Leu44; Leu44) VH: QVQLQESGPGLVKPSQTLSLTCTVSGDSFTNDYYWNWIRQHPGKGLEWIGHIGYGGNINYNPSLKNRLSMSRDTSKNQFSLKLSSVTAADTAVYYCTRESFYDGYPFDYWGQGTLVTVSS VL: DIQMTQSPSSLSASVGDRVTITCRASQDIRNYLNWYQQKPGKALKLLLYYTSRLHSGVPSRFSGSGSGTDYTLTISSLQPEDFATYYCQQGNSLPRTFGGGTKVEIK |  |  | 2.25 nM | 0.000537 s⁻¹ | 239000 M⁻¹ s⁻¹ |  | no binding | no binding
7 | VH1 VL3 (antibody, V domains shown, Humanized antibody) VH: QVQLQESGPGLVKPSQTLSLTCTVSGDSFTNDYYWNWIRQHPGKGLEWIGHIGYGGNINYNPSLKNRLSMSRDTSKNQFSLKLSSVTAADTAVYYCTRESFYDGYPFDYWGQGTLVTVSS VL: DIQMTQSPSSLSASVGDRVTITCRASQDIRNYLNWYQQKPGKAPKLLLYYTSRLHSGVPSRFSGSGSGTDYTLTISSLQPEDFATYYCQQGNSLPRTFGGGTKVEIK |  |  | 3.47 nM | 0.000674 s⁻¹ | 194000 M⁻¹ s⁻¹ |  |  | 
8 | VH1_H43Ser VL3_L44Leu (antibody, V domains shown) VH: QVQLQESGPGLVKPSQTLSLTCTVSGDSFTNDYYWNWIRQHPGSGLEWIGHIGYGGNINYNPSLKNRLSMSRDTSKNQFSLKLSSVTAADTAVYYCTRESFYDGYPFDYWGQGTLVTVSS VL: DIQMTQSPSSLSASVGDRVTITCRASQDIRNYLNWYQQKPGKALKLLLYYTSRLHSGVPSRFSGSGSGTDYTLTISSLQPEDFATYYCQQGNSLPRTFGGGTKVEIK |  |  | 2.38 nM | 0.000512 s⁻¹ | 215000 M⁻¹ s⁻¹ |  |  | 
9 | VH1_H43Ser VL3 (antibody, V domains shown) VH: QVQLQESGPGLVKPSQTLSLTCTVSGDSFTNDYYWNWIRQHPGSGLEWIGHIGYGGNINYNPSLKNRLSMSRDTSKNQFSLKLSSVTAADTAVYYCTRESFYDGYPFDYWGQGTLVTVSS VL: DIQMTQSPSSLSASVGDRVTITCRASQDIRNYLNWYQQKPGKAPKLLLYYTSRLHSGVPSRFSGSGSGTDYTLTISSLQPEDFATYYCQQGNSLPRTFGGGTKVEIK |  |  | 3.21 nM | 0.000679 s⁻¹ | 211000 M⁻¹ s⁻¹ |  |  | 
10 | VH1 VL3_L42Gly (antibody, V domains shown) VH: QVQLQESGPGLVKPSQTLSLTCTVSGDSFTNDYYWNWIRQHPGKGLEWIGHIGYGGNINYNPSLKNRLSMSRDTSKNQFSLKLSSVTAADTAVYYCTRESFYDGYPFDYWGQGTLVTVSS VL: DIQMTQSPSSLSASVGDRVTITCRASQDIRNYLNWYQQKPGGAPKLLLYYTSRLHSGVPSRFSGSGSGTDYTLTISSLQPEDFATYYCQQGNSLPRTFGGGTKVEIK |  |  | 3 nM | 0.00064 s⁻¹ | 213000 M⁻¹ s⁻¹ |  |  | 
11 | VH1_H43Ser + H44Lys VL3 (antibody, V domains shown) VH: QVQLQESGPGLVKPSQTLSLTCTVSGDSFTNDYYWNWIRQHPGSKLEWIGHIGYGGNINYNPSLKNRLSMSRDTSKNQFSLKLSSVTAADTAVYYCTRESFYDGYPFDYWGQGTLVTVSS VL: DIQMTQSPSSLSASVGDRVTITCRASQDIRNYLNWYQQKPGKAPKLLLYYTSRLHSGVPSRFSGSGSGTDYTLTISSLQPEDFATYYCQQGNSLPRTFGGGTKVEIK |  |  | 2.84 nM | 0.000596 s⁻¹ | 210000 M⁻¹ s⁻¹ |  |  | 
12 | VH1 VL3_L43Thr (antibody, V domains shown) VH: QVQLQESGPGLVKPSQTLSLTCTVSGDSFTNDYYWNWIRQHPGKGLEWIGHIGYGGNINYNPSLKNRLSMSRDTSKNQFSLKLSSVTAADTAVYYCTRESFYDGYPFDYWGQGTLVTVSS VL: DIQMTQSPSSLSASVGDRVTITCRASQDIRNYLNWYQQKPGKTPKLLLYYTSRLHSGVPSRFSGSGSGTDYTLTISSLQPEDFATYYCQQGNSLPRTFGGGTKVEIK |  |  | 4.72 nM | 0.000882 s⁻¹ | 187000 M⁻¹ s⁻¹ |  |  | 
13 | VH1_H40Phe + H44Lys VL3 (antibody, V domains shown) VH: QVQLQESGPGLVKPSQTLSLTCTVSGDSFTNDYYWNWIRQFPGKKLEWIGHIGYGGNINYNPSLKNRLSMSRDTSKNQFSLKLSSVTAADTAVYYCTRESFYDGYPFDYWGQGTLVTVSS VL: DIQMTQSPSSLSASVGDRVTITCRASQDIRNYLNWYQQKPGKAPKLLLYYTSRLHSGVPSRFSGSGSGTDYTLTISSLQPEDFATYYCQQGNSLPRTFGGGTKVEIK |  |  | 2.43 nM | 0.00056 s⁻¹ | 231000 M⁻¹ s⁻¹ |  |  | 
14 | VH1_H43Ser + H44Lys VL3_L44Leu (antibody, V domains shown) VH: QVQLQESGPGLVKPSQTLSLTCTVSGDSFTNDYYWNWIRQHPGSKLEWIGHIGYGGNINYNPSLKNRLSMSRDTSKNQFSLKLSSVTAADTAVYYCTRESFYDGYPFDYWGQGTLVTVSS VL: DIQMTQSPSSLSASVGDRVTITCRASQDIRNYLNWYQQKPGKALKLLLYYTSRLHSGVPSRFSGSGSGTDYTLTISSLQPEDFATYYCQQGNSLPRTFGGGTKVEIK |  |  | 2.15 nM | 0.000507 s⁻¹ | 236000 M⁻¹ s⁻¹ |  |  | 
15 | VH1_H44Lys VL3 (antibody, V domains shown) VH: QVQLQESGPGLVKPSQTLSLTCTVSGDSFTNDYYWNWIRQHPGKKLEWIGHIGYGGNINYNPSLKNRLSMSRDTSKNQFSLKLSSVTAADTAVYYCTRESFYDGYPFDYWGQGTLVTVSS VL: DIQMTQSPSSLSASVGDRVTITCRASQDIRNYLNWYQQKPGKAPKLLLYYTSRLHSGVPSRFSGSGSGTDYTLTISSLQPEDFATYYCQQGNSLPRTFGGGTKVEIK |  |  | 2.77 nM | 0.000592 s⁻¹ | 213000 M⁻¹ s⁻¹ |  |  | 
16 | VH1 VL3_L42Gly+L44Leu (antibody, V domains shown) VH: QVQLQESGPGLVKPSQTLSLTCTVSGDSFTNDYYWNWIRQHPGKGLEWIGHIGYGGNINYNPSLKNRLSMSRDTSKNQFSLKLSSVTAADTAVYYCTRESFYDGYPFDYWGQGTLVTVSS VL: DIQMTQSPSSLSASVGDRVTITCRASQDIRNYLNWYQQKPGGALKLLLYYTSRLHSGVPSRFSGSGSGTDYTLTISSLQPEDFATYYCQQGNSLPRTFGGGTKVEIK |  |  | 1.99 nM | 0.000523 s⁻¹ | 263000 M⁻¹ s⁻¹ |  |  | 
17 | VH1_H40Phe VL3 (antibody, V domains shown, Humanized antibody; also called VH1_40Phe:VL3; Phe40) VH: QVQLQESGPGLVKPSQTLSLTCTVSGDSFTNDYYWNWIRQFPGKGLEWIGHIGYGGNINYNPSLKNRLSMSRDTSKNQFSLKLSSVTAADTAVYYCTRESFYDGYPFDYWGQGTLVTVSS VL: DIQMTQSPSSLSASVGDRVTITCRASQDIRNYLNWYQQKPGKAPKLLLYYTSRLHSGVPSRFSGSGSGTDYTLTISSLQPEDFATYYCQQGNSLPRTFGGGTKVEIK |  |  | 2.65 nM | 0.000576 s⁻¹ | 217000 M⁻¹ s⁻¹ |  | no binding | no binding
